Source: patent US20110166062A1 (INDIANA UNIVERSITY RESEARCH AND TECHNOLOGY, published 2011)
*1 amine or outer side, *2 acyl side, *3 side chain or, on linkers, in order; H or OH if unused. Where no end group is shown, it is not given here. Side-chain parts run from the residue outwards. [ ]: non-standard residue; d: D form. The star is where a group is joined. γGlu = O=C(O)[C@H](CCC(=O)[*:2])N[*:1]; Palmitoyl = CCCCCCCCCCCCCCCC(=O)*; Aib = CC(C)(N)C(=O)O

What was measured:
Experiment in all cases: cell-based or functional assay
GLP-1 receptor [1] = biological target: T1, GLP-1 receptor (UniProt P43220 24-463, limits assumed)
glucagon receptor [2] = biological target: T2, glucagon receptor (UniProt P47871 26-477, limits assumed)
GIP receptor [3] = biological target: T3, GIP receptor (UniProt P48546 22-466)
T3 sequence (looked up): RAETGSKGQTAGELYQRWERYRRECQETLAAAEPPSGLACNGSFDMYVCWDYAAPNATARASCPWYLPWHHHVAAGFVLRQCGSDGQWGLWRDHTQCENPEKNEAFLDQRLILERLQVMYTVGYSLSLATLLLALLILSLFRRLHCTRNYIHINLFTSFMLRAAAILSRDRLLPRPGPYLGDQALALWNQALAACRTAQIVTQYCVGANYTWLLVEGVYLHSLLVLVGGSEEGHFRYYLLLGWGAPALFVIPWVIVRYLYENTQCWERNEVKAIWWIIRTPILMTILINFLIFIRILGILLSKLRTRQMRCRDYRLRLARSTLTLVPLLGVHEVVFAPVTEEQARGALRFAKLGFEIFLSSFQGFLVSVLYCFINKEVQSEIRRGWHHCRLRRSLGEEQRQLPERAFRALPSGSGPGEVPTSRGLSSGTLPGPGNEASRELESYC

GLP-1 receptor [4] = biological target: T1, GLP-1 receptor; remark: listed apart in the source
glucagon receptor [5] = biological target: T2, glucagon receptor; remark: listed apart in the source
GIP receptor [6] = biological target: T3, GIP receptor; remark: listed apart in the source

T2 sequence (P47871 26-477 limits assumed): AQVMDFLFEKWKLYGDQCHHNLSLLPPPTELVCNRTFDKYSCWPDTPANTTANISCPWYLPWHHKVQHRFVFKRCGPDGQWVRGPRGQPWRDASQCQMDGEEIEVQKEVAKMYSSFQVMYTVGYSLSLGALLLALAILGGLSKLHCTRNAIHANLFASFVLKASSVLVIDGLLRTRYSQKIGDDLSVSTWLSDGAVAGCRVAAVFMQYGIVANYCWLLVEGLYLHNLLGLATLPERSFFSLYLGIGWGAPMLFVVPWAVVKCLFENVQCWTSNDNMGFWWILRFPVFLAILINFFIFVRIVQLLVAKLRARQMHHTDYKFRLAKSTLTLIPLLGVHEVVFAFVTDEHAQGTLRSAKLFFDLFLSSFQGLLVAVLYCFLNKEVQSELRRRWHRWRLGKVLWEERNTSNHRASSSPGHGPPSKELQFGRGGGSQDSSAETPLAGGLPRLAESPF

B1: mt-369 (peptide)
peptide: Y[Aib]EGTFTSDK([γGlu-γGlu-Palmitoyl])SIYLDKQAA[Aib]EFVNWLLAGGPSSGAPPPSK-NH2
modifications: N-terminus assumed
SMILES: CCCCCCCCCCCCCCCC(=O)N[C@@H](CCC(=O)N[C@@H](CCC(=O)NCCCC[C@H](NC(=O)[C@H](CC(=O)O)NC(=O)[C@H](CO)NC(=O)[C@@H](NC(=O)[C@H](Cc1ccccc1)NC(=O)[C@@H](NC(=O)CNC(=O)[C@H](CCC(=O)O)NC(=O)C(C)(C)NC(=O)[C@@H](N)Cc1ccc(O)cc1)[C@@H](C)O)[C@@H](C)O)C(=O)N[C@@H](CO)C(=O)N[C@H](C(=O)N[C@@H](Cc1ccc(O)cc1)C(=O)N[C@@H](CC(C)C)C(=O)N[C@@H](CC(=O)O)C(=O)N[C@@H](CCCCN)C(=O)N[C@@H](CCC(N)=O)C(=O)N[C@@H](C)C(=O)N[C@@H](C)C(=O)NC(C)(C)C(=O)N[C@@H](CCC(=O)O)C(=O)N[C@@H](Cc1ccccc1)C(=O)N[C@H](C(=O)N[C@@H](CC(N)=O)C(=O)N[C@@H](Cc1c[nH]c2ccccc12)C(=O)N[C@@H](CC(C)C)C(=O)N[C@@H](CC(C)C)C(=O)N[C@@H](C)C(=O)NCC(=O)NCC(=O)N1CCC[C@H]1C(=O)N[C@@H](CO)C(=O)N[C@@H](CO)C(=O)NCC(=O)N[C@@H](C)C(=O)N1CCC[C@H]1C(=O)N1CCC[C@H]1C(=O)N1CCC[C@H]1C(=O)N[C@@H](CO)C(=O)N[C@@H](CCCCN)C(N)=O)C(C)C)[C@@H](C)CC)C(=O)O)C(=O)O
EC50, nM; GLP-1 Receptor (GLP-1 receptor [1]): 0.0041 nM | relative activity; GLP-1 Receptor (GLP-1 receptor [1]): 385% | EC50, nM; Glucagon Receptor (glucagon receptor [2]): 2.19 nM | relative activity; Glucagon Receptor (glucagon receptor [2]): 1.54% | EC50, nM; GIP Receptor (GIP receptor [3]): 0.0014 nM | relative activity; GIP Receptor (GIP receptor [3]): 204% | % Relative activity at the Receptor for GLP-1 (GLP-1 receptor [4]): 385% | % Relative activity at the Receptor for Glucagon (glucagon receptor [5]): 1.54% | % Relative activity at the Receptor for GIP (GIP receptor [6]): 204%
